This experiment concerns the target T1, peptide on HLA-A*11:01 (human).
T1 peptide: VVVGAVGVGK
Nature of the experiment: activation reporter or marker. The procedure:
Jurkat NFAT-Luciferase effector cells (JNL) cells were transfected on day 1 with TCR or CAR constructs using standard protocols for the Neon™ transfection system (ThermoFisher MPK5000). T2 HLA-A*11 target cells were loaded with peptide […] (SEQ ID NO: 110). Peptides were resuspended in DMSO, and serially-diluted 20 times, 3× per dilution. Serially diluted peptide solutions were added to T2 HLA-A*11 cells resuspended in peptide-loading media (RPMI 1640+1% BSA+1×P/S). This yielded peptide-loaded T2 HLA-A*11 cells at approximately ˜0.67E6/mL, with peptide concentrations ranging from ˜10 fM to 100 μM, including a control at 0 μM. Peptide-loaded T2 HLA-A*11 cells were incubated overnight at 37° C. in 384-well plates, plated at 10,000 cells per well (Corning 3570). On day 2, transfected JNL cells (10,000 cells/well) were added to the peptide-loaded T2 HLA-A*11 cells to a final volume of 30 μL. After a 6-hour incubation at 37° C., the One-Step™ Luciferase assay system (Firefly luciferase, BPS Bioscience, 60690) was used to determine luminescence intensity on a Tecan Infinite® M1000.

B1: Positive Control TCR (TRAV3-3*01/TRBV4*01) (TCR, V domains shown)
Valpha: GEQVEQRPPHLSVREGDSAVITCTYTDPNSYYFFWYKQEPGASLQLLMKVFSSTEINEGQGFTVLLNKKDKRLSLNLTAAHPGDSAAYFCAVSGGTNSAGNKLTFGIGTRVLVRP
Vbeta: ETAVFQTPNYHVTQVGNEVSFNCKQTLGHDTMYWYKQDSKKLLKIMFSYNNKQLIVNETVPRRFSPQSSDKAHLNLRIKSVEPEDSAVYLCASSRDWGPAEQFFGPGTRLTVL
On to B1, for which the binding result is on record as “recognises”.

The values above are taken from patent US20240180969A1 (published 2024).
